Measurements: patent US6348327

How the values were obtained:
[1] = target: T1, prorelaxin mutant Rx 4.3, P04090
T1 chain: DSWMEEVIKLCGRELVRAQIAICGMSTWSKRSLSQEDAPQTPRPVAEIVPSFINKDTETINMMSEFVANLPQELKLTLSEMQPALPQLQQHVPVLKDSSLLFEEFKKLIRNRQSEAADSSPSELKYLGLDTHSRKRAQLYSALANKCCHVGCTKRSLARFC

[2] = target: T2, prorelaxin mutant Rx7.2, P04090
T2 chain: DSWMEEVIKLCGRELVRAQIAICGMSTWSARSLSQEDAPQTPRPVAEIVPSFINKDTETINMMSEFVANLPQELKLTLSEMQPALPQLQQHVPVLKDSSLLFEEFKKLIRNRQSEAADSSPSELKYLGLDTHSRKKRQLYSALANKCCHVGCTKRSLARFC

[3] = target: T3, prorelaxin mutant Rx8.6, P04090
T3 chain: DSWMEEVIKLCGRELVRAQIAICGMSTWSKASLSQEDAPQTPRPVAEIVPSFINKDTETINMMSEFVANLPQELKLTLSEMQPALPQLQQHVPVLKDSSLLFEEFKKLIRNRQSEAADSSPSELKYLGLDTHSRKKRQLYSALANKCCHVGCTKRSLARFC

[4] = target: T4, prorelaxin mutant Rx 3.2, P04090
T4 chain: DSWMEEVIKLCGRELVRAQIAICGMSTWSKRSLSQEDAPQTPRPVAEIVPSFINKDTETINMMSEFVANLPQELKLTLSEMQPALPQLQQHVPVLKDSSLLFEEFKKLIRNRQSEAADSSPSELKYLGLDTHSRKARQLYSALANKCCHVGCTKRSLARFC

[5] = target: T5, prorelaxin mutant Rx 1.4, P04090
T5 chain: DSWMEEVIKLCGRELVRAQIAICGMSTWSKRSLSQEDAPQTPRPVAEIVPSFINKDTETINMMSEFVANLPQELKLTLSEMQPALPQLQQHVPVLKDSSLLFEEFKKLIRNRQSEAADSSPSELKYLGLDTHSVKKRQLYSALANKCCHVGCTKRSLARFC

[6] = target: T6, prorelaxin mutant Rx 2.4, P04090
T6 chain: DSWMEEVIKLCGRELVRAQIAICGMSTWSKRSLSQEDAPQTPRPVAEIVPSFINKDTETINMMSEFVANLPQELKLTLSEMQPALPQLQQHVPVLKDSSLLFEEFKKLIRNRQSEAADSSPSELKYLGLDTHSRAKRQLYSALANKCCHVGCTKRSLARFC

[7] = target: T7, human H2 prorelaxin (wild-type), P04090
T7 chain: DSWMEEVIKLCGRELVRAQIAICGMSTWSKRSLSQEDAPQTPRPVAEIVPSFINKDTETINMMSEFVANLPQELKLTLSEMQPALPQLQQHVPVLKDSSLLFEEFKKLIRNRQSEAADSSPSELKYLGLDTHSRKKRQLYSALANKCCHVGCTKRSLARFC

Protein | processing of prorelaxin mutant by murine prohormone convertase 1 [1] | processing of prorelaxin mutant by murine prohormone convertase 1 [2] | processing of prorelaxin mutant by murine prohormone convertase 1 [3] | processing of prorelaxin mutant by murine prohormone convertase 1 [4] | processing of prorelaxin mutant by murine prohormone convertase 1 [5] | processing of prorelaxin mutant by murine prohormone convertase 1 [6] | cleavage of prorelaxin mutant by murine prohormone convertase 2 [1] | cleavage of prorelaxin mutant by murine prohormone convertase 2 [2] | cleavage of prorelaxin mutant by murine prohormone convertase 2 [3] | cleavage of prorelaxin mutant by murine prohormone convertase 2 [4] | cleavage of prorelaxin mutant by murine prohormone convertase 2 [5] | cleavage of prorelaxin by murine prohormone convertase 2 [7] | cleavage of prorelaxin mutant by murine prohormone convertase 2 [6]
murine prohormone convertase 1 (protein) SVQKDSALDLFNDPMWNQQWYLQDTRMTAALPKLDLHVIPVWEKGITGKGVVITVLDDGLEWNHTDIYANYDPEASYDFNDNDHDPFPRYDLTNENKHGTRCAGEIAMQANNHKCGVGVAYNSKVGGIRMLDGIVTDAIEASSIGFNPGHVDIYSASWGPNDDGKTVEGPGRLAQKAFEYGVKQGRQGKGSIFVWASGNGGRQGDNCDCDGYTDSIYTISISSASQQGLSPWYAEKCSSTLATSYSSGDYTDQRITSADLHNDCTETHTGTSASAPLAAGIFALALEANPNLTWRDMQHLVVWTSEYDPLASNPGWKKNGAGLMVNSRFGFGLLNAKALVDLADPRTWRNVPEKKECVVKDNNFEPRALKANGEVIVEIPTRACEGQENAIKSLEHVQFEATIEYSRRGDLHVTLTSAVGTSTVLLAERERDTSPNGFKNWDFMSVHTWGENPVGTWTLKITDMSGRMQNEGRIVNWKLILHGTSSQPEHMKQPRVYTSYNTVQNDRRGVEKMVNVVEKRPTQKSLNGNLLVPKNSSSSNVEGRRDEQVQGTPSKAMLRLLQSAFSKNALSKQSPKKSPSAKLSIPYESFYEALEKLNKPSKLEGSEDSLYSDYVDVFYNTKPYKHRDDRLLQALMDILNEEN | Mutant 4.3 doesn't appear to be processed | mutants 7.2 and 8.6 are not processed | mutants 7.2 and 8.6 are not processed | mutant 3.2 is partially processed | Mutants 1.4 and 2.4 are processed the same as wild-type | Mutants 1.4 and 2.4 are processed the same as wild-type |  |  |  |  |  |  | 
murine prohormone convertase 2 (protein) GYRDINEIDINMNDPLFTKQWYLFNTGQADGTPGLDLNVAEAWELGYTGKGVTIGIMDDGIDYLHPDLAYNYNADASYDFSSNDPYPYPRYTDDWFNSHGTRCAGEVSAAASNNICGVGVAYNSKVAGIRMLDQPFMTDIIEASSISHMPQLIDIYSASWGPTDNGKTVDGPRELTLQAMADGVNKGRGGKGSIYVWASGDGGSYDDCNCDGYASSMWTISINSAINDGRTALYDESCSSTLASTFSNGRKRNPEAGVATTDLYGNCTLRHSGTSAAAPEAAGVFALALEANLDLTWRDMQHLTVLTSKRNQLHDEVHQWRRNGVGLEFNHLFGYGVLDAGAMVKMAKDWKTVPERFHCVGGSVQNPEKIPPTGKLVLTLKTNACEGKENFVRYLEHVQAVITVNATRRGDLNINMTSPMGTKSILLSRRPRDDDSKVGFDKWPFMTTHTWGEDARGTWTLELGFVGSAPQKGLLKEWTLMLHGTQSAPYIDQVVRDYQSKLAMSKKQELEEELDEAVERSLQSILRKN |  |  |  |  |  |  | with the exception of 4.3 where there is some processing | Mutant 7.2 is not cleaved by murine prohormone convertase 2 | does not cleave any of the prorelaxin mutants with the exception of 4.3 | does not cleave any of the prorelaxin mutants with the exception of 4.3 | does not cleave any of the prorelaxin mutants with the exception of 4.3 | Murine prohormone convertase 2 does not cleave the wildtype prorelaxin | does not cleave any of the prorelaxin mutants with the exception of 4.3
